Target: STAT1 (activated; HepG2 nuclear extract, IL-6) (UniProt P42224)
Assay: competition EMSA
Conditions: scale: fold competition efficiency vs c-myc E2F

Sequence of STAT1 (activated; HepG2 nuclear extract, IL-6) (P42224 whole entry): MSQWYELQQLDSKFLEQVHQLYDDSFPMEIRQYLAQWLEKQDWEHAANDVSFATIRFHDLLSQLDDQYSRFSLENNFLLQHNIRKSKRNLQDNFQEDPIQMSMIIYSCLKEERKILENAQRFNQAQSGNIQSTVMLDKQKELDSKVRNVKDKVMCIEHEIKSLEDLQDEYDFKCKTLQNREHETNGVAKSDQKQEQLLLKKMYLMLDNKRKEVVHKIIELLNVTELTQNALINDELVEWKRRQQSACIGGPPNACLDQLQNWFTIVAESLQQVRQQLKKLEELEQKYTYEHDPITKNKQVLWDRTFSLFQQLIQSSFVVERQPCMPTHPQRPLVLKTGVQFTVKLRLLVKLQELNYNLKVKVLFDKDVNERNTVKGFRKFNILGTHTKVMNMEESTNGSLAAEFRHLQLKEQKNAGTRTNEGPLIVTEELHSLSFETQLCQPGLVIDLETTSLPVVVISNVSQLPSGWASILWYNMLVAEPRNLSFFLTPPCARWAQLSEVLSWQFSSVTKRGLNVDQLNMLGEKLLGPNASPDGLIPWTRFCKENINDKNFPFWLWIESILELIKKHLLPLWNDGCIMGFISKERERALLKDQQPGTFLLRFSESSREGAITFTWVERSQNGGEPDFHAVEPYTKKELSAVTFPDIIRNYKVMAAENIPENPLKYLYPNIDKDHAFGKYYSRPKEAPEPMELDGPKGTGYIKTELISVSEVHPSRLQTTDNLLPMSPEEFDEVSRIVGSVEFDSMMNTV

## APRE (alpha2-macroglobulin)
  binding signal: 5

Source: article PMC1887683
